How the values were obtained:
[1] = target: T1, LOX catalytic domain (catalytic domain of human LOX, 169-417) (human, UniProt P28300 170-417); experiment: ELISA, plate coated with LOX catalytic domain
T1 construct: Expressed from pET28 in E. coli BL21 SHuffle, purified on HisTrap and labelled through its His tag for MST
T1 sequence: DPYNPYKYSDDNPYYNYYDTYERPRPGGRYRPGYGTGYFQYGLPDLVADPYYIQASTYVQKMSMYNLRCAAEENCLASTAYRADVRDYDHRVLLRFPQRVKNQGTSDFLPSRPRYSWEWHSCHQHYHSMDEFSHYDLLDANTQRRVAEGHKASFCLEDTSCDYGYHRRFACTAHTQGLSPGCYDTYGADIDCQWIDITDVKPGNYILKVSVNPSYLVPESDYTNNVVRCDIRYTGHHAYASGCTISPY
Description: A ninety-six-well plate (Nunc) was coated with LOX-catalytic domain, HSP70 or BSA at 10 μg/mL. After blocking with 2% BSA in PBS, the plate was incubated with Fc and Fc-LPD for 1 hour at 37° C. Bound antibodies were detected by peroxidase-conjugated antibody goat anti-human (Jackson ImmunoResearch). EC₅₀ was calculated with GraphPad Prism from […] curve fitting analysis.
The pYD5-Fc-LPD plasmid was used as a template in order to create point mutations in the three N-glycosylated sites N81, 97, 144 in the LPD, which are the N346, 362, 409 in our Fc-LPD construct with Q SEQ ID NO: 11. The mutations were performed with site-directed mutagenesis according to kit manufacturer instructions. EC₅₀ of generated Fc-LPD N346, 362, 409Q inhibitor was measured by ELISA (FIG. 1C) ranged from 10 to 2000 nM against the LOX catalytic domain (EC₅₀=58 nmol/L).

[2] = target: T2, Heat shock protein HSP 90-beta (human, UniProt P08238 2-724); experiment: IP from HDF supernatant, LFQ mass spectrometry; ratio against Fc control
T2 construct: also called HSP90AB1
T2 sequence (P08238 2-724 limits assumed): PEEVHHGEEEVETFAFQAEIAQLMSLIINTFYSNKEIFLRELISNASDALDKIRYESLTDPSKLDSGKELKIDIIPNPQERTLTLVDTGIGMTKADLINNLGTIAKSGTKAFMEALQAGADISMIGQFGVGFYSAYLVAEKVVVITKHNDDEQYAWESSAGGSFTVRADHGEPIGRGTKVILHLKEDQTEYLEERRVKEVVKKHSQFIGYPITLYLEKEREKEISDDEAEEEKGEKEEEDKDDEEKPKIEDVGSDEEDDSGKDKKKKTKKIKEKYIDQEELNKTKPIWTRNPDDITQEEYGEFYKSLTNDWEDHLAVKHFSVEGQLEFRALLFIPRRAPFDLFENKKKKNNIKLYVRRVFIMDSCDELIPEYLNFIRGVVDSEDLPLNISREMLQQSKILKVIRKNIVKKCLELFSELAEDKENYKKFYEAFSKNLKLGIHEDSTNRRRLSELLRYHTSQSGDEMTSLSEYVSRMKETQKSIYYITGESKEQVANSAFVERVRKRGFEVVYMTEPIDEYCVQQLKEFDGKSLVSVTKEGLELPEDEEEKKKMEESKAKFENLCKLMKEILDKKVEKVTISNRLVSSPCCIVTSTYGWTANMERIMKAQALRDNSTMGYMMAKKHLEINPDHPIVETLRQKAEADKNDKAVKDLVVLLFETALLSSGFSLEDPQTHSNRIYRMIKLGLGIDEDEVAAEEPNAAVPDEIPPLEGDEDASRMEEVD

[3] = target: T3, Heat shock protein HSP 90-alpha (human, UniProt P07900 2-732); experiment: as above
T3 construct: also called HSP90AA1

[4] = target: T4, Heat shock cognate 71 kDa protein (human, UniProt P11142 2-646); experiment: as above
T4 construct: also called HSPA8
T4 sequence (P11142 2-646 limits assumed): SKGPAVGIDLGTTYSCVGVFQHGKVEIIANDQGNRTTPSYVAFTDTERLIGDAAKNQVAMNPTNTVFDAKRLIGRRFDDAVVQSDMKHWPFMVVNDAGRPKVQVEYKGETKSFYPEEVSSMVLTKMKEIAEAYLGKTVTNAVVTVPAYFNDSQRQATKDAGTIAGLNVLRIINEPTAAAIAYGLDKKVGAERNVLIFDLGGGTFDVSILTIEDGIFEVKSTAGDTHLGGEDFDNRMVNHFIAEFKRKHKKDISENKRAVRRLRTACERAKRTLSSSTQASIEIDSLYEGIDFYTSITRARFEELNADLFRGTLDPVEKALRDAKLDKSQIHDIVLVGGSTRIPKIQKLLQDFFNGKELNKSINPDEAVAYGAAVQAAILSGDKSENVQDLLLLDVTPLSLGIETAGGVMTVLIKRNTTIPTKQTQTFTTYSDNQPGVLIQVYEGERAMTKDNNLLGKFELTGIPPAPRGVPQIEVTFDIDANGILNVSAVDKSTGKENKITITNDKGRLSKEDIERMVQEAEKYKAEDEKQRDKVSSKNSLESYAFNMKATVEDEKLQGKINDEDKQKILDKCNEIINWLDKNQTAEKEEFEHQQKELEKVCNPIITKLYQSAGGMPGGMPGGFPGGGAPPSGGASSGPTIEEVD

[5] = target: T5, Hornerin (human, UniProt Q86YZ3 1-2850, limits assumed); experiment: as above
T5 construct: also called HRNR
T5 sequence (Q86YZ3 whole entry): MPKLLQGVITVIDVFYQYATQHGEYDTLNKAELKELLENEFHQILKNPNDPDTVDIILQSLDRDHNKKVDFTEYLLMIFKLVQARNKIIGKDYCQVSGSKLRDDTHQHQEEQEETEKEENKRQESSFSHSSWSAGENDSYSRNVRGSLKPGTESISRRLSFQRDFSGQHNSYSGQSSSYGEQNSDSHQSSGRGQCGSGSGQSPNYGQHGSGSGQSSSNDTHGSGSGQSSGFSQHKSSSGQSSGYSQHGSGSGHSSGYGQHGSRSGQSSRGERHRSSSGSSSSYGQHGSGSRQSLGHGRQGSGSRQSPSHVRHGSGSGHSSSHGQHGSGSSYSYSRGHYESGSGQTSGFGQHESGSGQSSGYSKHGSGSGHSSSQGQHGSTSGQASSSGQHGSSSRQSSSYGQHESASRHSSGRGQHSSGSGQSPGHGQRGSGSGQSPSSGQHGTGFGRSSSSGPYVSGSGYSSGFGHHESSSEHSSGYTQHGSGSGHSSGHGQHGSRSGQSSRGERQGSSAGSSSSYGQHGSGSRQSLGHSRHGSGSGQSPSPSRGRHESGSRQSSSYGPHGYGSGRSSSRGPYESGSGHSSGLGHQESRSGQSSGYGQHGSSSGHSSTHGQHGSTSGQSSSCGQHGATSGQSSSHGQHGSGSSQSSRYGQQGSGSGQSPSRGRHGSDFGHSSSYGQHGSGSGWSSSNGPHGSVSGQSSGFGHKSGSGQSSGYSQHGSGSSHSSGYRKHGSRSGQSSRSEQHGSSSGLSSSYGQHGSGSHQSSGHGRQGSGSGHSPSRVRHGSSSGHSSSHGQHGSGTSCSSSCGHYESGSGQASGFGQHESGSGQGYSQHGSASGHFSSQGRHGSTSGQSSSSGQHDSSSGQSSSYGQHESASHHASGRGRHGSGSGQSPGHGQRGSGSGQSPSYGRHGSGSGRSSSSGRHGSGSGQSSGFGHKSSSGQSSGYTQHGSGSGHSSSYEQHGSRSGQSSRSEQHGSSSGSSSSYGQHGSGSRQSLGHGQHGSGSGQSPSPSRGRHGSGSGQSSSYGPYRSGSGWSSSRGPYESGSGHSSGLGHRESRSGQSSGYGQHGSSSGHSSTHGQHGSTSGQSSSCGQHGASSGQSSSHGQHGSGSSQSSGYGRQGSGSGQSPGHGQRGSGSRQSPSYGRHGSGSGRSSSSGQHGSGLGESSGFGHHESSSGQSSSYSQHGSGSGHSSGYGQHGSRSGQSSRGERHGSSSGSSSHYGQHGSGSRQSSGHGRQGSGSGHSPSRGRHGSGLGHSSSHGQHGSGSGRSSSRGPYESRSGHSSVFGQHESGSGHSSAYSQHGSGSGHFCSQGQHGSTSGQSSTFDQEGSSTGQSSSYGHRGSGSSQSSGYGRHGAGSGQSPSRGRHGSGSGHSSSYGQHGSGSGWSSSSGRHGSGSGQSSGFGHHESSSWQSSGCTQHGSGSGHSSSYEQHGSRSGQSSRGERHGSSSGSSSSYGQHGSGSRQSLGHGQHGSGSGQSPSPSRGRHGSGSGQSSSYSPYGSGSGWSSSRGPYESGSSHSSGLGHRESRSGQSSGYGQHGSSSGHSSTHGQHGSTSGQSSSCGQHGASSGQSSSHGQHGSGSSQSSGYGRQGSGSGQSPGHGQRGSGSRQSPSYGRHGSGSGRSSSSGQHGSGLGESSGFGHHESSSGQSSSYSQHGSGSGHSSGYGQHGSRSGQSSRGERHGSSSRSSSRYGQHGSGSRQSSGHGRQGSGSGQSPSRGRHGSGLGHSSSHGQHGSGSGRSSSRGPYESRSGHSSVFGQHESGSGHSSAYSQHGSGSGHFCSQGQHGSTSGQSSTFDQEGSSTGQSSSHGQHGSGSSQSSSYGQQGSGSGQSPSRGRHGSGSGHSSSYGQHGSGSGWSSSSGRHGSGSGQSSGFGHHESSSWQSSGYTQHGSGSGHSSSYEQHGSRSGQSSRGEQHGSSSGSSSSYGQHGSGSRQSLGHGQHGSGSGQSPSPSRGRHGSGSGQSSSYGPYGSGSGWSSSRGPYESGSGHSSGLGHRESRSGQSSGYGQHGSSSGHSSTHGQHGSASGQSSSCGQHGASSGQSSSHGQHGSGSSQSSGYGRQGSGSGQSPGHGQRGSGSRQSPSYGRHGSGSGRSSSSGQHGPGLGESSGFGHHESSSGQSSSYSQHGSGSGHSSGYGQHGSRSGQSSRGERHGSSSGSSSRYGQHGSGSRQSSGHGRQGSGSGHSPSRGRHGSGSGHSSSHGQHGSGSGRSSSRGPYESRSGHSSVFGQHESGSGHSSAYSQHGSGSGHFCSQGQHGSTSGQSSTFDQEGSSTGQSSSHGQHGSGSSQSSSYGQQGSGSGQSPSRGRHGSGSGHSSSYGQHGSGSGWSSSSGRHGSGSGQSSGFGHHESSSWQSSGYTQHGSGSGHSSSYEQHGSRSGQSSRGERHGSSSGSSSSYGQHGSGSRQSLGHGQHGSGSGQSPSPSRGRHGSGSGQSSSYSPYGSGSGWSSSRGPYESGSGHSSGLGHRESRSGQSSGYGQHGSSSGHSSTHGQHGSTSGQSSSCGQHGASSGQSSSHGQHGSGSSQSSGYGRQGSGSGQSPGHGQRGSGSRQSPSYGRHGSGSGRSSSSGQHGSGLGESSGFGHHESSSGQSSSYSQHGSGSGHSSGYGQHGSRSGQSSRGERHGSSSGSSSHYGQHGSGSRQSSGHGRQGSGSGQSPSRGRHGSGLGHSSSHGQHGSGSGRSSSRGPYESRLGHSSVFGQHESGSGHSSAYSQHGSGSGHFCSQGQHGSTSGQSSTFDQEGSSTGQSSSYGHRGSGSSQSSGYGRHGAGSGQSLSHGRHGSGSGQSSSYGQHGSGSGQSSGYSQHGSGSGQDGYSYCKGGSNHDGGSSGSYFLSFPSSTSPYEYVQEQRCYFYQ

[6] = target: T6, 60 kDa heat shock protein, mitochondrial (human, UniProt P10809 27-573, limits assumed); experiment: as above
T6 construct: also called HSPD1; HSP60
T6 sequence (P10809 27-573 limits assumed): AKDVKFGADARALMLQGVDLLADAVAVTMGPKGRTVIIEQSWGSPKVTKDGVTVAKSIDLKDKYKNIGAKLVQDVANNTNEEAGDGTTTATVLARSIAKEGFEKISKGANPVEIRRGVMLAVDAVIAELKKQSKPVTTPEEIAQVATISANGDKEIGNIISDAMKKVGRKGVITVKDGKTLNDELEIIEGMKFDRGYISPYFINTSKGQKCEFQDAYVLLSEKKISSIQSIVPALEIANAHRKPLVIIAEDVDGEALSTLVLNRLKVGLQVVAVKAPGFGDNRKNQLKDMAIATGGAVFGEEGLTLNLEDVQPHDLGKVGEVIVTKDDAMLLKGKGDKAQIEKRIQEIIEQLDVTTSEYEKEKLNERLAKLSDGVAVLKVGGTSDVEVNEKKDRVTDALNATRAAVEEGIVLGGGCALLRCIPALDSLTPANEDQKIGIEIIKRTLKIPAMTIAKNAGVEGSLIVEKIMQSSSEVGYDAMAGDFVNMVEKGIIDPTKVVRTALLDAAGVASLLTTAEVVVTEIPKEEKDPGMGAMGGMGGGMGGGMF

[7] = target: T7, Heat shock 70 kDa protein 1A/B (human, UniProt P0DMV9 2-641); experiment: as above
T7 construct: also called Heat shock 70 kDa protein 1B; HSPA1B

[8] = target: T8, Filaggrin-2 (human, UniProt Q5D862 1-2391, limits assumed); experiment: as above
T8 construct: also called FLG2

B1: Fc-LPD N346, 362, 409Q (Fc fusion)
chain: APPAAGQQQPPREPPAAPGAWRQQIQWENNGQVFSLLSLGSQYQPQRRRDPGAAVPGAAQASAQQPRTPILLIRDQRTAAARTRTAGSSGVTAGRPRPTARHWFQAGYSTSRAREAGASRAEQQTAPGEVPALSNLRPPSRVDGMVGD
notes: Fc-LPD with the three N-glycosylation sites N81, 97, 144 of the LPD (N346, 362, 409 in the construct) changed to Q by site-directed mutagenesis of pYD5-Fc-LPD; also called non-glycosylated form
For B1, the EC50 [1] was 58 nM, the “Ratio Fc-LPD-N346, 409, 456Q:Fc” value [2] was 1.8 and the “Ratio Fc-LPD-N346, 409, 456Q:Fc” value [3] was 0.2. For the same binder, the “Ratio Fc-LPD-N346, 409, 456Q:Fc” value [4] was 0.9, the “Ratio Fc-LPD-N346, 409, 456Q:Fc” value [5] was 0.2 and the “Ratio Fc-LPD-N346, 409, 456Q:Fc” value [6] was 0.1. For the same binder, the “Ratio Fc-LPD-N346, 409, 456Q:Fc” value [7] was 30 and the “Ratio Fc-LPD-N346, 409, 456Q:Fc” value [8] was 0.

— patent US20220049236A1 (YEDA RESEARCH AND DEVELOPMENT, published 2022)
